Assay results from doi:10.1101/2024.05.16.594476 (bioRxiv, 2024).

B1: Mtb RNAP α subunit (natural protein)
chain: MLISQRPTLSEDVLTDNRSQFVIEPLEPGFGYTLGNSLRRTLLSSIPGAAVTSIRIDGVLHEFTTVPGVKEDVTEIILNLKSLVVSSEEDEPVTMYLRKQGPGEVTAGDIVPPAGVTVHNPGMHIATLNDKGKLEVELVVERGRGYVPAVQNRASGAEIGRIPVDSIYSPVLKVTYKVDATRVEQRTDFDKLILDVETKNSISPRDALASAGKTLVELFGLARELNVEAEGIEIGPSPAEADHIASFALPIDDLDLTVRSYNCLKREGVHTVGELVARTESDLLDIRNFGQKSIDEVKIKLHQLGLSLKDSPPSFDPSEVAGYDVATGTWSTEGAYDEQDYAETEQL
B2: Mtb RNAP β subunit (natural protein)
chain: MLEGCILADSRQSKTAASPSPSRPQSSSNNSVPGAPNRVSFAKLREPLEVPGLLDVQTDSFEWLIGSPRWRESAAERGDVNPVGGLEEVLYELSPIEDFSGSMSLSFSDPRFDDVKAPVDECKDKDMTYAAPLFVTAEFINNNTGEIKSQTVFMGDFPMMTEKGTFIINGTERVVVSQLVRSPGVYFDETIDKSTDKTLHSVKVIPSRGAWLEFDVDKRDTVGVRIDRKRRQPVTVLLKALGWTSEQIVERFGFSEIMRSTLEKDNTVGTDEALLDIYRKLRPGEPPTKESAQTLLENLFFKEKRYDLARVGRYKVNKKLGLHVGEPITSSTLTEEDVVATIEYLVRLHEGQTTMTVPGGVEVPVETDDIDHFGNRRLRTVGELIQNQIRVGMSRMERVVRERMTTQDVEAITPQTLINIRPVVAAIKEFFGTSQLSQFMDQNNPLSGLTHKRRLSALGPGGLSRERAGLEVRDVHPSHYGRMCPIETPEGPNIGLIGSLSVYARVNPFGFIETPYRKVVDGVVSDEIVYLTADEEDRHVVAQANSPIDADGRFVEPRVLVRRKAGEVEYVPSSEVDYMDVSPRQMVSVATAMIPFLEHDDANRALMGANMQRQAVPLVRSEAPLVGTGMELRAAIDAGDVVVAEESGVIEEVSADYITVMHDNGTRRTYRMRKFARSNHGTCANQCPIVDAGDRVEAGQVIADGPCTDDGEMALGKNLLVAIMPWEGHNYEDAIILSNRLVEEDVLTSIHIEEHEIDARDTKLGAEEITRDIPNISDEVLADLDERGIVRIGAEVRDGDILVGKVTPKGETELTPEERLLRAIFGEKAREVRDTSLKVPHGESGKVIGIRVFSREDEDELPAGVNELVRVYVAQKRKISDGDKLAGRHGNKGVIGKILPVEDMPFLADGTPVDIILNTHGVPRRMNIGQILETHLGWCAHSGWKVDAAKGVPDWAARLPDELLEAQPNAIVSTPVFDGAQEAELQGLLSCTLPNRDGDVLVDADGKAMLFDGRSGEPFPYPVTVGYMYIMKLHHLVDDKIHARSTGPYSMITQQPLGGKAQFGGQRFGEMECWAMQAYGAAYTLQELLTIKSDDTVGRVKVYEAIVKGENIPEPGIPESFKVLLKELQSLCLNVEVLSSDGAAIELREGEDEDLERAAANLGINLSRNESASVEDLA
B3: Mtb RNAP σ^A (natural protein)
chain: MAATKASTATDEPVKRTATKSPAASASGAKTGAKRTAAKSASGSPPAKRATKPAARSVKPASAPQDTTTSTIPKRKTRAAAKSAAAKAPSARGHATKPRAPKDAQHEAATDPEDALDSVEELDAEPDLDVEPGEDLDLDAADLNLDDLEDDVAPDADDDLDSGDDEDHEDLEAEAAVAPGQTADDDEEIAEPTEKDKASGDFVWDEDESEALRQARKDAELTASADSVRAYLKQIGKVALLNAEEEVELAKRIEAGLYATQLMTELSERGEKLPAAQRRDMMWICRDGDRAKNHLLEANLRLVVSLAKRYTGRGMAFLDLIQEGNLGLIRAVEKFDYTKGYKFSTYATWWIRQAITRAMADQARTIRIPVHMVEVINKLGRIQRELLQDLGREPTPEELAKEMDITPEKVLEIQQYAREPISLDQTIGDEGDSQLGDFIEDSEAVVAVDAVSFTLLQDQLQSVLDTLSEREAGVVRLRFGLTDGQPRTLDEIGQVYGVTRERIRQIESKTMSKLRHPSRSQVLRDYLD

Key:
[1] = target: T1, Mtb PhoP, phosphorylated with acetyl phosphate (AcP) (Mycobacterium tuberculosis, UniProt P71814 1-247); assay: […]
Mtb RNAP σ^A = target: B3; assay: cryo-EM structure
Mtb RNAP β subunit = target: B2; assay: cryo-EM structure
Mtb RNAP α subunit = target: B1; assay: cryo-EM structure
[2] = target: T1, Mtb PhoP, phosphorylated with acetyl …; assay: cryo-EM structure

Binder	binding result [1]	binding result (Mtb RNAP σ^A)	binding result (Mtb RNAP β subunit)	binding result (Mtb RNAP α subunit)	binding result [2]
B1	binds	–	–	–	–
B2	binds	–	–	–	–
Mtb GlnR, the nitrogen metabolism regulator (natural protein) MLELLLLTSELYPDPVLPALSLLPHTVRTAPAEASSLLEAGNADAVLVDARNDLSSGRGLCRLLSSTGRSIPVLAVVSEGGLVAVSADWGLDEILLLSTGPAEIDARLRLVVGRRGDLADQESLGKVSLGELVIDEGTYTARLRGRPLDLTYKEFELLKYLAQHAGRVFTRAQLLHEVWGYDFFGGTRTVDVHVRRLRAKLGPEHEALIGTVRNVGYKAVRPARGRPPAADPDDEDADPGRDGMQEPLVDPLRSQ	–	binds	binds	binds	binds
B3	binds	–	–	–	–
